Results as given in patent US20190177370A1 (TOKYO UNIVERSITY OF PHARMACY AND LIFE SCIENCES, published 2019).
Blank lines part the entries; values can stand above or below the binder they belong to. Square brackets hold non-standard residues; d marks the D form. Primed or numbered codes have the meaning given here. * marks the point of attachment. m‑dPEG(4)″ = m-dPEG(4) acid, coupled to Acp (R^111 group of Formula (4)), COCCOCCOCCOCCC(=O)*; m‑dPEG(4) = m-dPEG(4) acid, coupled to Acp, with Acp forms R^111 of Formula (4); Propanoyl(3,3-Ph2) = O=C(CC(c1ccccc1)c1ccccc1)*; 2Nal = N[C@@H](Cc1ccc2ccccc2c1)C(=O)O; Chg = N[C@H](C(=O)O)C1CCCCC1; R^118 = not defined here; Ahx = NCCCCCC(=O)O

Molecular target: T1, myostatin (UniProt O14793 267-375, limits assumed)
T1 sequence (looked up): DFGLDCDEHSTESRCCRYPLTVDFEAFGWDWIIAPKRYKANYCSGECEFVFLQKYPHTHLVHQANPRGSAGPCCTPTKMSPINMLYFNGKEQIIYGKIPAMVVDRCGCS
Assay: cell-based or functional assay

myostatin inhibitory activity at 1 µM (luciferase reporter assay): ≥ 40 % inhibition
B1: PDM-31 (peptide)
peptide: {m‑dPEG(4)″-Ahx}-[2Nal]YIEWIKIQIISKLRL-NH2
SMILES: CC[C@H](C)[C@H](NC(=O)[C@H](Cc1ccc(O)cc1)NC(=O)[C@H](Cc1ccc2ccccc2c1)NC(=O)CCCCCNC(=O)CCOCCOCCOCCOC)C(=O)N[C@@H](CCC(=O)O)C(=O)N[C@@H](Cc1c[nH]c2ccccc12)C(=O)N[C@H](C(=O)N[C@@H](CCCCN)C(=O)N[C@H](C(=O)N[C@@H](CCC(N)=O)C(=O)N[C@H](C(=O)N[C@H](C(=O)N[C@@H](CO)C(=O)N[C@@H](CCCCN)C(=O)N[C@@H](CC(C)C)C(=O)N[C@@H](CCCNC(=N)N)C(=O)N[C@@H](CC(C)C)C(N)=O)[C@@H](C)CC)[C@@H](C)CC)[C@@H](C)CC)[C@@H](C)CC

myostatin inhibitory activity at 0.3 µM (luciferase reporter assay): ≥ 40 % inhibition
B2: nPDM-77 (peptide)
peptide: H-WYIRWIP[Chg]QIWSR[Chg]RL-NH2
SMILES: CC[C@H](C)[C@H](NC(=O)[C@H](CCC(N)=O)NC(=O)[C@@H](NC(=O)[C@@H]1CCCN1C(=O)[C@@H](NC(=O)[C@H](Cc1c[nH]c2ccccc12)NC(=O)[C@H](CCCNC(=N)N)NC(=O)[C@@H](NC(=O)[C@H](Cc1ccc(O)cc1)NC(=O)[C@@H](N)Cc1c[nH]c2ccccc12)[C@@H](C)CC)[C@@H](C)CC)C1CCCCC1)C(=O)N[C@@H](Cc1c[nH]c2ccccc12)C(=O)N[C@@H](CO)C(=O)N[C@@H](CCCNC(=N)N)C(=O)N[C@H](C(=O)N[C@@H](CCCNC(=N)N)C(=O)N[C@@H](CC(C)C)C(N)=O)C1CCCCC1

myostatin inhibitory activity at 0.3 µM (luciferase reporter assay): ≥ 40 % inhibition
B3: 3,3-diphenylpropionyl-nPDM-85 (peptide)
peptide: {Propanoyl(3,3-Ph2)}-YIRWIR[Chg]QIWSR[Chg]PL-NH2
SMILES: CC[C@H](C)[C@H](NC(=O)[C@H](Cc1ccc(O)cc1)NC(=O)CC(c1ccccc1)c1ccccc1)C(=O)N[C@@H](CCCNC(=N)N)C(=O)N[C@@H](Cc1c[nH]c2ccccc12)C(=O)N[C@H](C(=O)N[C@@H](CCCNC(=N)N)C(=O)N[C@H](C(=O)N[C@@H](CCC(N)=O)C(=O)N[C@H](C(=O)N[C@@H](Cc1c[nH]c2ccccc12)C(=O)N[C@@H](CO)C(=O)N[C@@H](CCCNC(=N)N)C(=O)N[C@H](C(=O)N1CCC[C@H]1C(=O)N[C@@H](CC(C)C)C(N)=O)C1CCCCC1)[C@@H](C)CC)C1CCCCC1)[C@@H](C)CC

IC50 of the myostatin inhibitory activity (luciferase reporter assay, 0.016 to 2 µM): 273 nM
B4: 3d (peptide)
peptide: {R^118}-RQNTRYSRIEWIKIQIISKLRL-NH2
modifications: reading uncertain; also: N-terminal R118 group (Formula 11) structure not given here, printed as R118-RQNTRYSRIEWIKIQIISKLRL-NH2

myostatin inhibitory activity at 1 µM (luciferase reporter assay): ≥ 40 % inhibition
Binder: {m‑dPEG(4)-Ahx}-FYIEWIKIQIISKLRL-NH2 [PDM-32]
